# Source: patent US20090274696A1, “METHODS FOR TREATING INFLAMMATION” (WYETH, priority 2008, published 2009)
# Experiments:
# [1] = test system: MLCK, MLC-20, α-actin, G proteins, c-Raf/ERK1/2/p38 MAPK in trachea; test: Western blot of protein expression in treated trachea; assay type: cell-based, mouse
# Procedure: PBS- and FIZZ1-treated trachea were cultured in DMEM overnight for Western blot analysis. Treated and untreated trachea were harvested and homogenized separately in lysis buffer containing 20 mM […], 2.0 mM EGTA, 5.0 mM EDTA, 30 mM sodium fluoride, 40 mM β-glycerophosphate, 20 mM sodium orthovanadate, 1.0 mM phenylmethylsulfonyl-fluoride, 3.0 mM benzamidine, 5 μM pepstatin A, 10 μM leupeptin and 0.5% Triton X-100 at pH 7.2 (KINEXUS, Canada). Tissue supernatants were centrifuged (15,000×g) for 60 min at 4° C. and protein concentrations in the cleared supernatant of homogenized trachea and BAL were examined by bicinchoninic acid assay (BCA) (Pierce Biotechnology, Rockford, Ill.). Absorbance of total protein from each group was measured spectrophotometrically at an optical density of 562 nm and different concentrations of bovine serum albumin (BSA) were applied as a standard curve. Proteins concentrations (μg/ml) were quantified with the standard curve of BSA using BCA assay. Samples were stored at −70° C. until use.
# Protein expression levels of were examined using Western blot analysis. Briefly, aliquots (100 μg/well) of BAL supernatant and tracheal lysate were loaded onto 4-20% SDS-PAGE gel in an equal volume. Size-fractionated proteins were transferred to nitrocellulose membrane and then blocked with 5% nonfat dried milk in TBS at room temperature for 60 min. The membrane was individually incubated with primary antibodies to either FIZZ1 (Rabbit anti-mouse FIZZ1, Antigenix America Inc., USA), MLCK, MLC-20, α-actin, Giα1,2, Ggα11, β-actin (Sigma, USA), Gα12/13 (Santa Cruz Biotechnology, Inc., USA), c-Raf, phospho-c-Raf, ERK1/2, phospho-ERK1/2, p38 MAPK or phospho-p38 MAPK (Cell Signaling, Inc., USA) at 4° C. overnight, washed three times with TBS and then incubated with peroxidase-conjugated secondary antibodies for another 60 min. The blot was washed 3 times with TBS and a mixture of Western Blotting Detection Reagent I and II (GE Healthcare Life Sciences, Piscataway, N.J.) was poured on the membrane with gentle agitation for 1 min at room temperature. Immunoreactive bands were detected by chemiluminesence. Protein expression levels were evaluated in relative to expression of β-actin in the same tissue. Quantification of Western blots for phosphorylated signaling proteins was performed using ImageJ and relative band intensity was calculated as % of the intensity of the β-actin protein band.
# [2] = test system: TSM of epithelium-denuded trachea; test: CCh-evoked force in trachea with mechanically removed epithelium EP(−); assay type: cell-based, mouse
# Procedure: Histological examination of the structure of the airway and the status of the airway epithelial layer was performed in whole/sectional fresh trachea and as well as trachea cultured overnight with and without 100 nM FIZZ1. To understand the role of airway epithelium in regulating contractility of TSM, we measured the contractile response of tracheal rings after the epithelium was mechanically removed. Briefly, airway epithelial cells were removed by gently rubbing the intraluminal surface with polyethylene tubing (Becton Dickinson & Company, MD USA) connected to a Precision Glide needle (30G1/2) followed by perfusion with 1.0 ml air bubbles and then 1.0 ml K-H solution (re). All of the experimental tracheas were stained with H & E solution (CAT hematoxylin, Edgar Degas Eosin Working Solution, Biocare Medical, Concord, Calif.) and photographed under a light microscope at ×4.0 and ×20 magnification. […]
# At the end of each force measurement experiment, tracheas were blotted on a gauze pad and weighted. Results were calculated as milligram of tension per milligram of TSM weight (mg/mg) and expressed as an individual percentage (%) of 10 μM CCh- or 200 μM papaverine-induced tension response in PBS-treated trachea. […]
# [3] = 24 hours after rFIZZ1 treatment vs PBS, n=3
# [4] = FIZZ1-treated vs PBS-treated trachea, relative to β-actin
molecule,measurement,setting,value
"rFIZZ1: recombinant FIZZ1 (Leinco Technologies), mouse FIZZ1 protein, resistin-like molecule-α (protein, listed as Mus musculus, (1)..(101) Murine FIZZ1 polypeptide) MKTTTCSLLICISLLQLMVPVNTDETIEIIVENKVKELLANIPANYPSTVTKTLSCTSVKTMNRWASCPAGMTATGCACGFACGSWEIQSGDTCNCLCLLV","protein expression levels for α-actin and G proteins (Giα1,2, Gqα11, Gα12/13)","[1]; 100 nM rFIZZ1- vs PBS-treated trachea, normalized to β-actin",similar
same,"level of phosphorylation of c-Raf, ERK1/2 and p38 MAPK, kinetic profile","[1]; 100 nM rFIZZ1, greatly increasing only between 16 and 32 hours",marked time-dependent increase
same,expression of phospho-ERK1/2,[1]; [3],increased
same,expression of phospho-c-Raf,[1]; [3],increased
same,expression of phospho-p38 MAPK,[1]; [3],increased
same,expression of unphosphorylated c-Raf,"[1]; 24 hours, FIZZ1 vs PBS-cultured trachea",slightly increased
same,expression of MLC-20,[1]; [4],increase
same,expression of MLCK,[1]; [4],increase
same,"EP(−) TSM sensitivity to CCh, LogEC50","[2]; EP(−)/FIZZ1 100 nM, Mean ± SE, N=8",−0.91 ± 0.08 μM
same,"maximal tensions (%), CCh stimulation, EP(−) trachea","[2]; denuded epithelium EP(−) with 100 nM FIZZ1, EP(+) 100±6.22",141.43±6.65%
